{
  "source": "patent US20230167182A1",
  "about": "(BIOSION, published 2023)",
  "binders": {"B1": {"name": "Tocilizumab (antibody, human IgG1, kappa, V domains shown)", "VH": "QVQLQESGPGLVRPSQTLSLTCTVSGYSITSDHAWSWVRQPPGRGLEWIGYISYSGITTYNPSLKSRVTMLRDTSKNQFSLRLSSVTAADTAVYYCARSLARTTAMDYWGQGSLVTVSS", "VL": "DIQMTQSPSSLSASVGDRVTITCRASQDISSYLNWYQQKPGKAPKLLIYYTSRLHSGVPSRFSGSGSGTDFTFTISSLQPEDIATYYCQQGNTLPYTFGQGTKVEIKR", "notes": "In house made; also called benchmark; Actemra"}, "B2": {"name": "mouse anti-IL6R monoclonal antibody 1G1 (antibody, V domains shown)", "VH": "QVQLQQPGAELVKPGASVKLSCKASGYTFTSYWMHWVKVRPGQGLEWIGEINPTNGRTNYNEDFKSKATLTVESSSSTAYMQFSSLTSEDSAVYYCARLNTHYVFDYWGQGTTLTVSS", "VL": "EIVLTQSPTILAASPGEKITFTCSVSSSISSNYLHWYQQKPGFSPKLLIYRTSNLASGVPARFSGSGSGTSYSLTIGTMEAEDVATYYCQQGSGIPFTFGSGTKLEIK", "notes": "Mouse hybridoma mAb"}, "B3": {"name": "mouse anti-IL6R monoclonal antibody 3C2 (antibody, V domains shown)", "VH": "QVQLQQPGTELVKPGASVKLSCKASGYTFTTYWIHWVKQRPGQGLEWIGEINPSNGRTNYNEHFKSKATLTVDKSSSTASMQLSSLTSADSAVYYCARLNTHYVFDSWGQGTTLTVSS", "VL": "B2 VL with I10T, L11M, F21I, V25A, A61T, R62H", "notes": "Mouse hybridoma mAb"}, "B4": {"name": "mouse anti-IL6R monoclonal antibody 1H7 (antibody, V domains shown)", "VH": "B3 VH with T31N, I34M, E46D, S54T, H63N, S80Y, A89E, V116L", "VL": "B2 VL with I10T, Y50S, N54T, I107L", "notes": "Mouse hybridoma mAb"}, "B5": {"name": "Chimeric 1H7 (antibody, human IgG1, kappa, V domains shown)", "VH": "B3 VH with T31N, I34M, E46D, S54T, H63N, S80Y, A89E, V116L", "VL": "EIVLTQSPTTLAASPGEKITFTCSVSSSISSNYLHWYQQKPGFSPKLLISRTSTLASGVPARFSGSGSGTSYSLTIGTMEAEDVATYYCQQGSGIPFTFGSGTKLELKR", "notes": "Mouse variable regions on human IgG1 / human kappa constant regions; also called chimeric antibody 1H7"}, "B6": {"name": "humanized antibody hu1H7-V5 (antibody, human IgG1, kappa, V domains shown)", "VH": "QVQLVQSGAEVKKPGASVKVSCKASGYTFTNYWMHWVRQAPGQGLEWIGEINPTNGRTNYNENFKSRVTLTVDTSTSTVYMELSSLRSEDTAVYYCARLNTHYVFDSWGQGTLVTVSS", "VL": "EIVLTQSPGTLSLSPGERATLSCSVSSSISSNYLHWYQQKPGLSPRLLISRTSTLASGIPARFSGSGSGTEYTLTISRMQSEDFAVYYCQQGSGIPFTFGQGTKLEIKR", "notes": "Human IgG1 / kappa"}, "B7": {"name": "mouse anti-IL6R monoclonal antibody 1D4 (antibody, V domains shown)", "VH": "B2 VH with E73N, F83L", "VL": "B2 VL", "notes": "Mouse hybridoma mAb"}, "B8": {"name": "mouse anti-IL6R monoclonal antibody 1A3 (antibody, V domains shown)", "VH": "QVQLQQPGAELVKPGASVKLSCKASGYTFTSYWMHWVKQRPAQGLEWIGEINPSNGRTNFNEKFKTKATLTVDKSSNTAYMQLSSLTSEDSAVYSCLRLNTHYVFDYWGQGTTLTVSS", "VL": "B2 VL with I10T, L11M, F21I, V25A, Y50S, A61T, E82G", "notes": "Mouse hybridoma mAb purified on Protein A"}, "B9": {"name": "mouse anti-IL6R monoclonal antibody 1H9 (antibody, V domains shown)", "VH": "QVQLQQPGAELVKPGASVKLSCKASGYTFTSYWMHWVKLRPGQGLEWIGEINPTNGRTNYYEKFKNRATLTADKSSSTAYMQLSSLTFEDSAVYFCAKFHYSRWYFDVWGTGTTVTVSS", "VL": "DIVMTQSQKFMSTSVGDRVSITCKASQNVGTAVVWYQQKPGQSPKLLINPASNRYTGVPDRFTGSGSGTDFTLTISNMQSEDLADYFCQQYSSYPLTFGAGTKLELK", "notes": "Mouse hybridoma mAb"}},
  "note": "Changes are numbered by the printed parent chain.",
  "data": [
    {"target": "T1, human IL6R expressed on cell surface (human, UniProt P08887 20-468)", "T1 construct": "whole, on cells; also called cell surface human IL6R; U266 cells expressing human IL6R", "T1 sequence (looked up)": "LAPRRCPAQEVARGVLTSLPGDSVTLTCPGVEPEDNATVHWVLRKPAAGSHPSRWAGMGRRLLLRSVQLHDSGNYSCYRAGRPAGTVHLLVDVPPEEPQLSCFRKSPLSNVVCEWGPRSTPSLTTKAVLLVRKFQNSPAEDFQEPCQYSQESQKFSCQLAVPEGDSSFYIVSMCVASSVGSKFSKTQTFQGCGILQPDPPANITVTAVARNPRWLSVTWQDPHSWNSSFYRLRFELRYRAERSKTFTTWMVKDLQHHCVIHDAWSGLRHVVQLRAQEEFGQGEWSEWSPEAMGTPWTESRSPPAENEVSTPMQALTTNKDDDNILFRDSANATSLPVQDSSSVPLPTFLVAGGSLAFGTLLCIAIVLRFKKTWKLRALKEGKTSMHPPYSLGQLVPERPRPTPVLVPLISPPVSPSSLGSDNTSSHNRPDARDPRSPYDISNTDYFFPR", "assay": "cell-based binding FACS on U266 cells", "description": "(§1) The binding activities of the mouse anti-IL6R antibodies to IL6R expressed on cell surface were tested by flow cytometry (FACS). Briefly, human myeloma cells U266 (ATCC® TIB-196™) were harvested from cell culture flasks, washed twice and resuspended in phosphate buffered saline (PBS) containing 2% v/v Fetal Bovine Serum (FACS buffer). 2×10⁵ U266 cells per well were incubated in 96 well-plates with 100 μl of the anti-IL6R antibodies or controls at various concentrations (starting at 40 nM with a 3-fold serial dilution in FACS buffer) for 40 minutes on ice. Cells were washed twice with FACS buffer, and added with 100 μL/well R-Phycoerythrin AffiniPure F(ab′)₂ Fragment Goat Anti-Mouse IgG (H+L) (1:1000 dilution in FACS buffer, Jackson ImmunoResearch Laboratories, Inc., Cat #115-116-146). Following an incubation of 40 minutes at 4° C. in dark, cells were washed three times and resuspended in FACS buffer. Fluorescence was measured using a Becton Dickinson FACS Canto II-HTS equipment. Data was analyzed using Graphpad Prism software and EC₅₀ values were reported.", "units": {"EC50": "nM"}, "values": [
      {"binder": "B1", "EC50": 1.49},
      {"binder": "B2", "EC50": 0.34},
      {"binder": "B3", "EC50": 0.286}
    ]},
    {"target": "T1, human IL6R expressed on cell surface", "assay": "cell-based binding FACS on U266 cells", "remark": "another data set of the same source", "description": "as §1\nFor the cell-based binding FACS, R-Phycoerythrin AffiniPure Goat Anti-human IgG Fcγ fragment specific (Jackson ImmunoResearch Laboratories, Inc., Cat #109-115-098) was used instead of R-Phycoerythrin AffiniPure F(ab′)₂ Fragment Goat Anti-Mouse IgG (H+L), 1:1000 dilution in FACS buffer, 100 μl/well.", "units": {"EC50": "nM"}, "values": [
      {"binder": "B1", "EC50": 1.76},
      {"binder": "B4", "EC50": 0.301},
      {"binder": "B5", "EC50": 0.298},
      {"binder": "B6", "EC50": 0.417}
    ]},
    {"target": "T2, macaca IL6R-his protein (macaca mulatta)", "T2 chain": "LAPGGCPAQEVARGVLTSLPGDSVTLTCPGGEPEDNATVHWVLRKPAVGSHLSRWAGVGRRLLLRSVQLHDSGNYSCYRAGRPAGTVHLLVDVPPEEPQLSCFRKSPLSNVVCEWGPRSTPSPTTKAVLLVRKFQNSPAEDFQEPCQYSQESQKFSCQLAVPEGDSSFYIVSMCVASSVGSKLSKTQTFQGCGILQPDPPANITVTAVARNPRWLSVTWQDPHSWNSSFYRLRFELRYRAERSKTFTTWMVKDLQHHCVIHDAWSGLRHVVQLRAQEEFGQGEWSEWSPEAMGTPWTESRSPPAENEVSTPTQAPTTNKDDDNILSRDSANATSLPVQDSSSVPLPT", "assay": "indirect ELISA on plate-coated macaca IL6R-his", "description": "The anti-IL6R antibodies were tested for their cross-reaction with macaca IL6R. Briefly, 96-well micro plates were coated with 2 μg/ml macaca IL6R-his protein (in house made, amino acid sequence set forth in SEQ ID NO:45) in carbonate/bicarbonate buffer (pH 9.6), 100 μl/well, for 2 hours at 37° C. ELISA plates were washed once with wash buffer (PBS+0.05% v/v Tween-20, PBST) and then blocked with 200 μl/well blocking buffer (5% w/v non-fatty milk in PBST) for 2 hours at 37° C. Plates were washed 4 times and incubated with 100 μl/well serially diluted anti-IL6R antibodies of the disclosure or controls, starting at 66.67 nM with 5-fold serial dilution in PBST with 2.5% w/v non-fat milk, and incubated at 37° C. for 40 minutes. ELISA plates were washed 4 times again and incubated with 100 μl/well Peroxidase AffiniPure Goat Anti-Mouse IgG, Fcγ Fragment Specific (1:5000 dilution in PBST buffer, Jackson ImmunoResearch Laboratories, Inc., Cat #115-035-071) for 40 minutes at 37° C. After the final wash, plates were incubated with 100 μl/well TMB (InnoReagents). The reaction was stopped 3-10 minutes later at room temperature with 50 μl/well 1M H₂SO₄, and the absorbance of each well was read on a microplate reader using dual wavelength mode with 450 nm for TMB and 630 nm as the reference wavelength. Then the OD (450-630) values were plotted against antibody concentration. Data was analyzed using Graphpad Prism software and EC₅₀ values were reported.", "units": {"EC50": "nM"}, "values": [
      {"binder": "B1", "EC50": 0.0589},
      {"binder": "B7", "EC50": 0.175},
      {"binder": "B8", "EC50": 0.228}
    ]},
    {"target": "T2, macaca IL6R-his protein", "assay": "indirect ELISA on plate-coated macaca IL6R-his", "remark": "another data set of the same source", "units": {"EC50": "nM"}, "values": [
      {"binder": "B1", "EC50": 0.201},
      {"binder": "B4", "EC50": 0.147},
      {"binder": "B5", "EC50": 0.227},
      {"binder": "B6", "EC50": 0.242}
    ]},
    {"target": "T3, human IL6R-Fc protein (human, biotin-labeled in the ELISAs (sites not given))", "T3 construct": "In house made; also called biotin-labeled human IL6R-Fc protein", "assay": "ligand blocking ELISA: antibody pre-incubated with biotin-labeled human IL6R-Fc, added to plate-coated human IL6 (blocked ligand: human IL6)", "description": "(§2) The next day, anti-IL6R antibodies or controls were diluted with biotin labeled human IL6R-Fc protein (prepared in house, SEQ ID NO: 43, 39.5 ng/ml in 2.5% w/v non-fatty milk in PBST), starting at 100 nM with a 4-fold serial dilution, and incubated at room temperature for 40 minutes. […] Plates were washed for 4 times using wash buffer, and added and incubated with 100 μl/well of streptavidin conjugated HRP (1:10000 dilution in PBST buffer, Jackson ImmunoResearch Laboratories, Inc., Cat #016-030-084) for 40 minutes at 37° C. Plates were washed again using wash buffer. Finally, TMB was added and the reaction was stopped using 1M H₂SO₄. The absorbance was read on a microplate reader using dual wavelength mode with 450 nm for TMB and 630 nm as the reference wavelength, and then the OD (450-630) values were plotted against antibody concentration. Data was analyzed using Graphpad Prism software and IC₅₀ values were reported.", "units": {"IC50": "nM"}, "values": [
      {"binder": "B1", "IC50": 2.54},
      {"binder": "B4", "IC50": 0.601},
      {"binder": "B9", "IC50": 1.05}
    ]},
    {"target": "T3, human IL6R-Fc protein", "assay": "ligand blocking ELISA: antibody pre-incubated with biotin-labeled human IL6R-Fc, added to plate-coated human IL6 (blocked ligand: human IL6)", "remark": "another data set of the same source", "description": "ELISA plates were washed once with wash buffer (PBS+0.05% v/v Tween-20, PBST) and then blocked with 200 μl/well blocking buffer (5% w/v non-fatty milk in PBST) overnight at 4° C.\nas §2", "units": {"IC50": "nM"}, "values": [
      {"binder": "B1", "IC50": 1.03},
      {"binder": "B4", "IC50": 0.189},
      {"binder": "B5", "IC50": 0.161},
      {"binder": "B6", "IC50": 0.223}
    ]}
  ]
}
